B1: Ab1H-P600/Ab1L (antibody, human IgG1, kappa, name in EU numbering)
heavy: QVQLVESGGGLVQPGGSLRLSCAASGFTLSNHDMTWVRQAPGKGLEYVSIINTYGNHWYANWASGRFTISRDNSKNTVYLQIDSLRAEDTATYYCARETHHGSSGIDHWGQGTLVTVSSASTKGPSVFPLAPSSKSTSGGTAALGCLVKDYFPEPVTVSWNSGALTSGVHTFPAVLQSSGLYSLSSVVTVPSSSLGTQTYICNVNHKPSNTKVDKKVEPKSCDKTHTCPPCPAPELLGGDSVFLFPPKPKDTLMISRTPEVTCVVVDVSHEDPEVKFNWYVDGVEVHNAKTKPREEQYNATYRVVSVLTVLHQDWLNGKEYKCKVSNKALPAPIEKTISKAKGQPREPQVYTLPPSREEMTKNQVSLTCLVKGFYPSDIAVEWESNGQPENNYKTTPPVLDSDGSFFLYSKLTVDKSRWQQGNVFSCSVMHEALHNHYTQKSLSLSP
light: DIQMTQSPSSVSASVGDRVTITCQASESIYSGLAWYQQKPGQPPKLLIYDHSTLASGVPSRFSGSGSGTEYALTISSLQPEDFATYYCQHADYAHHSDNVFGGGTKVEIKRTVAAPSVFIFPPSDEQLKSGTASVVCLLNNFYPREAKVQWKVDNALQSGNSQESVTEQDSKDSTYSLSSTLTLSKADYEKHKVYACEVTHQGLSSPVTKSFNRGEC
notes: copies: 2 + 2
B2: Ab1H-P842/Ab1L (antibody, human IgG1, kappa, name in EU numbering)
heavy: QVQLVESGGGLVQPGGSLRLSCAASGFTLSNHDMTWVRQAPGKGLEYVSIINTYGNHWYANWASGRFTISRDNSKNTVYLQIDSLRAEDTATYYCARETHHGSSGIDHWGQGTLVTVSSASTKGPSVFPLAPSSKSTSGGTAALGCLVKDYFPEPVTVSWNSGALTSGVHTFPAVLQSSGLYSLSSVVTVPSSSLGTQTYICNVNHKPSNTKVDKKVEPKSCDKTHTCPPCPAPELLGGDSVFLFPPKPKDTLMISRTPEVTCVVVDVSHEDPEVKFNWYVDGVEVHNAKTKPREEQYNATYRVVSVLTVLHQDWLNGKEYKCKVSNKALPAPIEKTISKAKGQPREPQVYTLPPSREEMTKNKVSLTCLVKGFYPSDIAVEWESNGQPENNYKTTPPVLDSDGSFFLYSKLTVDKSRWQQGNVFSCSVMHEALHNHYTQKSLSLSP
light: DIQMTQSPSSVSASVGDRVTITCQASESIYSGLAWYQQKPGQPPKLLIYDHSTLASGVPSRFSGSGSGTEYALTISSLQPEDFATYYCQHADYAHHSDNVFGGGTKVEIKRTVAAPSVFIFPPSDEQLKSGTASVVCLLNNFYPREAKVQWKVDNALQSGNSQESVTEQDSKDSTYSLSSTLTLSKADYEKHKVYACEVTHQGLSSPVTKSFNRGEC
notes: copies: 2 + 2
B3: Ab1H-P829/Ab1L (antibody, human IgG1, kappa, name in EU numbering)
heavy: QVQLVESGGGLVQPGGSLRLSCAASGFTLSNHDMTWVRQAPGKGLEYVSIINTYGNHWYANWASGRFTISRDNSKNTVYLQIDSLRAEDTATYYCARETHHGSSGIDHWGQGTLVTVSSASTKGPSVFPLAPSSKSTSGGTAALGCLVKDYFPEPVTVSWNSGALTSGVHTFPAVLQSSGLYSLSSVVTVPSSSLGTQTYICNVNHKPSNTKVDKKVEPKSCDKTHTCPPCPAPELLGGDSVFLFPPKPKDTLMISRTPEVTCVVVDVSHEDPEVKFNWYVDGVEVHNAKTKPREEQYNATYRVVSVLTVLHQDWLNGKEYKCKVSNKALPAPIEKTIRKAKGQPREPQVYTLPPSREEMTKNQVSLTCLVKGFYPSDIAVEWESNGQPENNYKTTPPVLDSDGSFFLYSKLTVDKSRWQQGNVFSCSVMHEALHNHYTQKSLSLSP
light: DIQMTQSPSSVSASVGDRVTITCQASESIYSGLAWYQQKPGQPPKLLIYDHSTLASGVPSRFSGSGSGTEYALTISSLQPEDFATYYCQHADYAHHSDNVFGGGTKVEIKRTVAAPSVFIFPPSDEQLKSGTASVVCLLNNFYPREAKVQWKVDNALQSGNSQESVTEQDSKDSTYSLSSTLTLSKADYEKHKVYACEVTHQGLSSPVTKSFNRGEC
notes: copies: 2 + 2
B4: Ab1H-P843/Ab1L (antibody, human IgG1, kappa, name in EU numbering)
heavy: QVQLVESGGGLVQPGGSLRLSCAASGFTLSNHDMTWVRQAPGKGLEYVSIINTYGNHWYANWASGRFTISRDNSKNTVYLQIDSLRAEDTATYYCARETHHGSSGIDHWGQGTLVTVSSASTKGPSVFPLAPSSKSTSGGTAALGCLVKDYFPEPVTVSWNSGALTSGVHTFPAVLQSSGLYSLSSVVTVPSSSLGTQTYICNVNHKPSNTKVDKKVEPKSCDKTHTCPPCPAPELLGGDSVFLFPPKPKDTLMISRTPEVTCVVVDVSHEDPEVKFNWYVDGVEVHNAKTKPREEQYNATYRVVSVLTVLHQDWLNGKEYKCKVSNKALPAPIEKTISKAKGQPREPQVYTLPPSREEMTKNQVSLTCLVKGFYPSDIAVRWESNGQPENNYKTTPPVLDSDGSFFLYSKLTVDKSRWQQGNVFSCSVMHEALHNHYTQKSLSLSP
light: DIQMTQSPSSVSASVGDRVTITCQASESIYSGLAWYQQKPGQPPKLLIYDHSTLASGVPSRFSGSGSGTEYALTISSLQPEDFATYYCQHADYAHHSDNVFGGGTKVEIKRTVAAPSVFIFPPSDEQLKSGTASVVCLLNNFYPREAKVQWKVDNALQSGNSQESVTEQDSKDSTYSLSSTLTLSKADYEKHKVYACEVTHQGLSSPVTKSFNRGEC
notes: copies: 2 + 2
B5: Ab1H-P841/Ab1L (antibody, human IgG1, kappa, name in EU numbering)
heavy: QVQLVESGGGLVQPGGSLRLSCAASGFTLSNHDMTWVRQAPGKGLEYVSIINTYGNHWYANWASGRFTISRDNSKNTVYLQIDSLRAEDTATYYCARETHHGSSGIDHWGQGTLVTVSSASTKGPSVFPLAPSSKSTSGGTAALGCLVKDYFPEPVTVSWNSGALTSGVHTFPAVLQSSGLYSLSSVVTVPSSSLGTQTYICNVNHKPSNTKVDKKVEPKSCDKTHTCPPCPAPELLGGDSVFLFPPKPKDTLMISRTPEVTCVVVDVSHEDPEVKFNWYVDGVEVHNAKTKPREEQYNATYRVVSVLTVLHQDWLNGKEYKCKVSNKALPAPIEKTISKAKGQPREPQVYTLPPSREEMTKRQVSLTCLVKGFYPSDIAVEWESNGQPENNYKTTPPVLDSDGSFFLYSKLTVDKSRWQQGNVFSCSVMHEALHNHYTQKSLSLSP
light: DIQMTQSPSSVSASVGDRVTITCQASESIYSGLAWYQQKPGQPPKLLIYDHSTLASGVPSRFSGSGSGTEYALTISSLQPEDFATYYCQHADYAHHSDNVFGGGTKVEIKRTVAAPSVFIFPPSDEQLKSGTASVVCLLNNFYPREAKVQWKVDNALQSGNSQESVTEQDSKDSTYSLSSTLTLSKADYEKHKVYACEVTHQGLSSPVTKSFNRGEC
notes: copies: 2 + 2
B6: Ab1H-P831/Ab1L (antibody, human IgG1, kappa, name in EU numbering)
heavy: QVQLVESGGGLVQPGGSLRLSCAASGFTLSNHDMTWVRQAPGKGLEYVSIINTYGNHWYANWASGRFTISRDNSKNTVYLQIDSLRAEDTATYYCARETHHGSSGIDHWGQGTLVTVSSASTKGPSVFPLAPSSKSTSGGTAALGCLVKDYFPEPVTVSWNSGALTSGVHTFPAVLQSSGLYSLSSVVTVPSSSLGTQTYICNVNHKPSNTKVDKKVEPKSCDKTHTCPPCPAPELLGGDSVFLFPPKPKDTLMISRTPEVTCVVVDVSHEDPEVKFNWYVDGVEVHNAKTKPREEQYNATYRVVSVLTVLHQDWLNGKEYKCKVSNKALPAPIEKTISKAKGQPREPQVYTLPPSREEMTKNQVSLTCLVKGFYPSDIAVEWESNGQRENNYKTTPPVLDSDGSFFLYSKLTVDKSRWQQGNVFSCSVMHEALHNHYTQKSLSLSP
light: DIQMTQSPSSVSASVGDRVTITCQASESIYSGLAWYQQKPGQPPKLLIYDHSTLASGVPSRFSGSGSGTEYALTISSLQPEDFATYYCQHADYAHHSDNVFGGGTKVEIKRTVAAPSVFIFPPSDEQLKSGTASVVCLLNNFYPREAKVQWKVDNALQSGNSQESVTEQDSKDSTYSLSSTLTLSKADYEKHKVYACEVTHQGLSSPVTKSFNRGEC
notes: copies: 2 + 2
B7: Ab1H-P840/Ab1L (antibody, human IgG1, kappa, name in EU numbering)
heavy: QVQLVESGGGLVQPGGSLRLSCAASGFTLSNHDMTWVRQAPGKGLEYVSIINTYGNHWYANWASGRFTISRDNSKNTVYLQIDSLRAEDTATYYCARETHHGSSGIDHWGQGTLVTVSSASTKGPSVFPLAPSSKSTSGGTAALGCLVKDYFPEPVTVSWNSGALTSGVHTFPAVLQSSGLYSLSSVVTVPSSSLGTQTYICNVNHKPSNTKVDKKVEPKSCDKTHTCPPCPAPELLGGDSVFLFPPKPKDTLMISRTPEVTCVVVDVSHEDPEVKFNWYVDGVEVHNAKTKPREEQYNATYRVVSVLTVLHQDWLNGKEYKCKVSNKALPAPIEKTISKAKGQPREPQVYTLPPSREEMKKNQVSLTCLVKGFYPSDIAVEWESNGQPENNYKTTPPVLDSDGSFFLYSKLTVDKSRWQQGNVFSCSVMHEALHNHYTQKSLSLSP
light: DIQMTQSPSSVSASVGDRVTITCQASESIYSGLAWYQQKPGQPPKLLIYDHSTLASGVPSRFSGSGSGTEYALTISSLQPEDFATYYCQHADYAHHSDNVFGGGTKVEIKRTVAAPSVFIFPPSDEQLKSGTASVVCLLNNFYPREAKVQWKVDNALQSGNSQESVTEQDSKDSTYSLSSTLTLSKADYEKHKVYACEVTHQGLSSPVTKSFNRGEC
notes: copies: 2 + 2
B8: Ab1H-P837/Ab1L (antibody, human IgG1, kappa, name in EU numbering)
heavy: QVQLVESGGGLVQPGGSLRLSCAASGFTLSNHDMTWVRQAPGKGLEYVSIINTYGNHWYANWASGRFTISRDNSKNTVYLQIDSLRAEDTATYYCARETHHGSSGIDHWGQGTLVTVSSASTKGPSVFPLAPSSKSTSGGTAALGCLVKDYFPEPVTVSWNSGALTSGVHTFPAVLQSSGLYSLSSVVTVPSSSLGTQTYICNVNHKPSNTKVDKKVEPKSCDKTHTCPPCPAPELLGGDSVFLFPPKPKDTLMISRTPEVTCVVVDVSHEDPEVKFNWYVDGVEVHNAKTKPREEQYNATYRVVSVLTVLHQDWLNGKEYKCKVSNKALPAPIEKTISKAKGQPRRPQVYTLPPSREEMTKNQVSLTCLVKGFYPSDIAVEWESNGQPENNYKTTPPVLDSDGSFFLYSKLTVDKSRWQQGNVFSCSVMHEALHNHYTQKSLSLSP
light: DIQMTQSPSSVSASVGDRVTITCQASESIYSGLAWYQQKPGQPPKLLIYDHSTLASGVPSRFSGSGSGTEYALTISSLQPEDFATYYCQHADYAHHSDNVFGGGTKVEIKRTVAAPSVFIFPPSDEQLKSGTASVVCLLNNFYPREAKVQWKVDNALQSGNSQESVTEQDSKDSTYSLSSTLTLSKADYEKHKVYACEVTHQGLSSPVTKSFNRGEC
B9: Ab1H-P828/Ab1L (antibody, human IgG1, kappa, name in EU numbering)
heavy: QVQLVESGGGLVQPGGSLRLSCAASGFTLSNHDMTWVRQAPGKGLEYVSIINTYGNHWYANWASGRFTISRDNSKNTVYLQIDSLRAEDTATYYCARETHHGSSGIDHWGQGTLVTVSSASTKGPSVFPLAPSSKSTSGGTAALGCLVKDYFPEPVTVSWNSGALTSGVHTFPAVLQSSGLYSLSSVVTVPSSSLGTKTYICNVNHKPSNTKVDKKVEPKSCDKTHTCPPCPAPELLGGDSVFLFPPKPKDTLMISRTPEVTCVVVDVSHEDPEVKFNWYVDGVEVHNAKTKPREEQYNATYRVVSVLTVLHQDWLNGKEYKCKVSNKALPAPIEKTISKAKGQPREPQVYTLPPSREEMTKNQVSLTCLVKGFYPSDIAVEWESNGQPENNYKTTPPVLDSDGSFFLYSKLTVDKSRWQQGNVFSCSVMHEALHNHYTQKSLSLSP
light: DIQMTQSPSSVSASVGDRVTITCQASESIYSGLAWYQQKPGQPPKLLIYDHSTLASGVPSRFSGSGSGTEYALTISSLQPEDFATYYCQHADYAHHSDNVFGGGTKVEIKRTVAAPSVFIFPPSDEQLKSGTASVVCLLNNFYPREAKVQWKVDNALQSGNSQESVTEQDSKDSTYSLSSTLTLSKADYEKHKVYACEVTHQGLSSPVTKSFNRGEC
notes: copies: 2 + 2

biological target: T1, soluble human FcγRIIb (human, UniProt P31994 43-217, limits assumed); assay: SPR, Ab-IgE complex over captured hFcγRIIb, pH 7.4, 25C
T1 construct: soluble His-tagged form; also called hFcγRIIb
T1 sequence (looked up): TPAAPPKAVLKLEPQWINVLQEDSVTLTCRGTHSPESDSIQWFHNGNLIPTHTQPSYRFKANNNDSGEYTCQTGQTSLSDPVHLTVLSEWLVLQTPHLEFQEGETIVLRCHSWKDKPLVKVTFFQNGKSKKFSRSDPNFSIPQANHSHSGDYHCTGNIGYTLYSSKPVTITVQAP
Method: Fc region variant-containing antibody binding assays between soluble human FcγRIIb (a.k.a. “hFcγRIIb”) and antigen-antibody complexes were performed using BIACORE® T200 (GE Healthcare). Soluble hFcγRIIb was produced in the form of a His-tagged molecule using methods known in the art. An appropriate amount of an anti-His antibody was fixed onto Sensor chip CM5 (GE Healthcare) by the amine coupling method using a His capture kit (GE Healthcare) to capture hFcγRIIb. Next, an antibody-antigen complex and a running buffer (as a reference solution) was injected, and interaction was allowed to take place with the hFcγRIIb captured onto the sensor chip. 20 mM N-(2-Acetamido)-2-aminoethanesulfonic acid, 150 mM NaCl, 1.2 mM CaCl₂, and 0.05% (w/v) Tween 20 at pH 7.4 was used as the running buffer, and the respective buffer was also used to dilute the soluble hFcγRIIb. To regenerate the sensor chip, 10 mM glycine-HCl at pH 1.5 was used. All measurements were carried out at 25° C. Analyses were performed based on binding (RU) calculated from sensorgrains obtained by the measurements, and relative values when the binding amount of P600 was defined as 1.00 are shown. To calculate the parameters, the BIACORE® T100 Evaluation Software (GE Healthcare) was used.

In order of falling “relative binding (RU), P600=1.00” value:
1. B6  3.85 fold
2. B2  2.37 fold
3. B7  2.25 fold
4. B8  1.88 fold
5. B5  1.86 fold
6. B9  1.27 fold
7. B1  1 fold
8. B3  0.17 fold
9. B4  -0.04 fold
